According to the supplement of paper PMC12764529:
± gives the half width of the 95% confidence interval.

What was measured:
[1] = folding stability dG unfold from trypsin proteolysis; higher = more stable
Outline: (§1)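 K50 was inferred by Bayesian fitting of sequencing counts obtained after protease digestion of designed mini-proteins. Unfolding free energy was derived by comparison with a sequence-predicted unfolded-state K50 and a shared folded-state K50, for each protease or both combined. The mini-proteins were under 80 residues, had no cysteine, were carried in a PA-tagged cDNA display construct, and were kept only if AlphaFold2 dimer inter-PAE exceeded 15.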

[2] = folding stability dG unfold (combined trypsin and chymotrypsin); higher = more stable
Outline: as §1

[3] = folding stability dG unfold from chymotrypsin proteolysis; higher = more stable
Outline: as §1

Row | Sequence | folding stability dG unfold [1] [kcal/mol] | folding stability dG unfold [2] [kcal/mol] | folding stability dG unfold [3] [kcal/mol]
1 | SAGGSAGGSSSVTPVPETTLVTLTPPDGSPPVLGTVFPATGTMLLFYPDSVLLLPLGPGTTLFSAGGSAGGS [r12_536_JUSTAS] | 0.888 ± 0.034 | 0.82 ± 0.079 | 0.503 ± 0.08
2 | SAGGSASVTTTVTLPNGEVVTITFDPANPTTATLSFPDGTTVTLSFSSPEEALARAIEELLAGKPLSAGGSA [r15_38_JUSTAS] | 2.99 ± 0.1 | 2.48 ± 0.081 | 2.01 ± 0.056
3 | SAGGSAGGSAGGSKPNNFKNIPKPVFKFKITTTEWKKNKDGTWTPVSTSTAEVTVWSNTSAGGSAGGSAGGS [r4_288_TrMRF] | 3.2 ± 0.11 | 3.88 ± 0.21 | 4.29 ± 0.1
4 | SAGGSAGGSAGKIKVEKDKKTNEYRVTIELFDKNGKPVKKIEITVKKEDLPKIKELLKKLSAGGSAGGSAGG [r11_77_TrROS_Hall] | 2.96 ± 0.069 | 3.4 ± 0.076 | 3.6 ± 0.1
5 | SAGGSAGGKKVYEIKGLTPEQIRALVKENKGKVTIYYKDGKKEEKTIKEGDEIAPGETVYIEVESAGGSAGG [r6_303_TrROS_Hall] | 0.858 ± 0.11 | 1.56 ± 0.21 | 1.74 ± 0.13
6 | SNPNEPLTAEEIAKHIEEFMQEEHGIDKIKPEEFTVNPPDGYIKVEMEIEHKNPPGQKHKIDIWIPPDDLSA [r9_1002_TrROS] | 0.0662 ± 0.22 | < -1 | 0.0346 ± 0.14
7 | SAMKVYIAASSPEEIEGWIEEARKAGIDGPELIFVSPDDRVYKAEIIPNTGEVKIEPVKPIEELLKELPSAG [r14_913_TrMRF] | 1.09 ± 0.11 | 0.955 ± 0.34 | 0.788 ± 0.4
8 | SAGGSAGGSAGMKVEIEVYELPGGERPVKITVTYENKPKEYEKEAETEEEAEEFAKELLESAGGSAGGSAGG [r11_560_JUSTAS] | -0.237 ± 0.23 | -0.0487 ± 0.57 | 0.039 ± 0.58
9 | SAGMKKVEIVEEVKDPETNEPVILVRDKDTGELVKFHPNGKVTIYDLNDPNKAKVFEAKISDVLEELANSAG [r5_491_TrMRF] | 0.622 ± 0.071 | 0.847 ± 0.21 | 1.28 ± 0.19
10 | SAGGMVLVEPSPDAVVRVIEREGDLARVTVYDPRSGARTVELVPIAPTGKGGVRLETLEVRVLPDAEASAGG [r13_556_JUSTAS] | -0.136 ± 0.035 | -0.0934 ± 0.057 | -0.0954 ± 0.048
11 | SAGSPVTLELRVTRPRADAATGAPATATETVTVTLPAAVVAAGLSPEEIARLLEAANPGATVELTAVASAGG [r19_110_JUSTAS] | 0.844 ± 0.052 | 0.582 ± 0.07 | 0.259 ± 0.14
12 | SAGGMMIVIRIPNKPVEFEINGWKIEYNPDEGTIIIPFPPEMLDQLEKLPGLEGIKDIEIIPPGELKSAGGS [r8_493_TrROS] | 1.22 ± 0.029 | 2.12 ± 0.14 | 2.56 ± 0.051
13 | SAGGSAMPADEVVEVREITDPATGKKVTVVRNKETGRYFVRVENPDGETEVFEVPGMTAEELEELASAGGSA [r15_295_TrROS_Hall] | 2.33 ± 0.056 | 2.51 ± 0.1 | 2.6 ± 0.051
14 | SAGGSAGGSAGGGSITITFKHPDGGEVTIEITPPEPTVRVTVTLPNGEKLEYEFDFVPASAGGSAGGSAGGS [r10_595_TrMRF] | 3.24 ± 0.22 | 3.58 ± 0.14 | 3.68 ± 0.11
15 | SSSGPKTELITLKYEEPVRSPEEAEARARALAEEIAERTGAPIEVDVEIEYDPETGKAYVTVPVRVLLPDSA [r9_741_JUSTAS] | 1.14 ± 0.037 | 0.727 ± 0.1 | 0.124 ± 0.16
16 | SAGGSAGGSAGMAEKLPSLSLFYLPETGDLVLIREETYVDPNDPDKSIVKQEIYVLPPEYSAGGSAGGSAGG [r17_241_TrMRF] | 0.984 ± 0.051 | 1.51 ± 0.096 | 1.74 ± 0.13
17 | SAGGSAGGMILLETEEGEPKAVILFELRDPLFGGEIPLEFLEELAEEIKEKFPEIKHIELIGLPSAGGSAGG [r6_793_TrMRF] | 1.47 ± 0.047 | 1.31 ± 0.08 | 1.1 ± 0.03
18 | SAGGSAGGSAGEPIKGIIRVYNPETGEVTDIELEFKTLEEALAFAASLPPTVARVEIVFASAGGSAGGSAGG [r11_25_TrMRF] | 1.6 ± 0.059 | 2.66 ± 0.095 | 3.002 ± 0.03
19 | SAIVIPIRVQMPPNDPDALEQAKEIADYIADMMMEEGYPFKIEVDDIEWERNPNGHWTVEIPIKIKPPPSAG [r14_48_TrROS] | 1.45 ± 0.18 | 1.38 ± 0.15 | 1.25 ± 0.083
20 | SAGGSIRIYANNVEITDIEIGDDGYIEIKVRMRGPNGQPQEFTLMIRVVPPPPPPKVDPNDPDAKDSAGGSA [r2_368_TrROS] | 2.51 ± 0.1 | 3.08 ± 0.31 | 3.5 ± 0.29
21 | SAGIKEIAKKLGFPIHSVKPTEPDPENGKLKWTVIFRNEKNNYYVIEIDLDDPEKIEIERFPPGEEIPSAGG [r19_72_TrROS] | 1.21 ± 0.13 | 1.39 ± 0.21 | 1.61 ± 0.12

Row | Sequence | folding stability dG unfold [1] [kcal/mol] | folding stability dG unfold [2] [kcal/mol] | folding stability dG unfold [3] [kcal/mol]
22 | SAGGSAGGSATTVTVESDPATGTRFVYETDEKNPGLLKVTKVTTLPDGSVVVETGYISPEKLSAGGSAGGSA [r18_505_JUSTAS] | 1.45 ± 0.051 | 1.61 ± 0.11 | 1.74 ± 0.043
23 | SAGGSAGGSGSMSIPVGSPEALREYLRERLPPEADLSEEELEALVEELLAKASIDSDGRLHLASAGGSAGGS [r12_983_JUSTAS] | 1.65 ± 0.039 | 2.05 ± 0.053 | 2.207 ± 0.012
24 | SAGKPIDLGEVEVEISPVSYDPETGKLTYQARLVTKDGKPIYTASVTYDPKTGKFSISVTPIGYDPSAFSAG [r5_200_TrMRF] | 2.26 ± 0.057 | 2.2 ± 0.14 | 1.99 ± 0.12
25 | SAGGSAGGSAGIKIEWEPNPNGSWRMKIEIPNPNGNPKKIEVWANPNGKIREDEAKEILNSAGGSAGGSAGG [r11_759_TrROS] | 0.707 ± 0.12 | 1.02 ± 0.39 | 1.18 ± 0.24
26 | SAGGSAGGSAGSWELSYRFPGVQIEVTYSPEWGFITEIKVQPLPPPPPPSPEDAKEMKEKSAGGSAGGSAGG [r11_320_TrROS] | 0.799 ± 0.083 | 2.02 ± 0.12 | 2.56 ± 0.081
27 | SAGGSAGGSAGGSPEFKIVSVEYDPETGLVTLEIEREDGSTLRFVFDKDGKLVRVEELPSAGGSAGGSAGGS [r4_259_TrROS_Hall] | 3.31 ± 0.22 | 4.44 ± 0.19 | 4.56 ± 0.15
28 | SAGGSAGGSMVKVEVTTTYDPSSNKTTVTTTTTLTEGGGTVLGTKTTTTTTTISPTTPVTSVTSAGGSAGGS [r12_254_JUSTAS] | 0.604 ± 0.031 | 0.955 ± 0.042 | 1.17 ± 0.015
29 | SAGGMEVEITIVVPPGASLEEIEELARKLAEELGLSVENIKVTVIVVEPEEEEEEEEEKKLKEEEEKSAGGS [r16_240_TrROS_Hall] | 1.93 ± 0.17 | 2.57 ± 0.55 | 3.04 ± 0.56
30 | SPAGELVSSTFPVTVTVTVWRRLPDGTWTPVGTETFTVTVTVAGIPEEVAEALRKAAETPPPPPNLAGLLSA [r9_1192_TrMRF] | 1.98 ± 0.028 | 1.93 ± 0.054 | 1.82 ± 0.049
31 | SAGGSAGGKNWRTIPFMIWIPPGAPPIEFEIPLPDGWKVEIEISVVRNPDGWYFIMFSITVQPDSAGGSAGG [r6_510_TrROS] | 3.12 ± 0.28 | 3.81 ± 0.22 | 3.85 ± 0.17
32 | SMKISSFTLAPGGEAVIELTFESGETRRVRLTGLTSKAEVEAEAKRLQEELEKGNPRPIKTVTVSPAPPASA [r9_1135_JUSTAS] | 1.14 ± 0.064 | 1 ± 0.094 | 0.768 ± 0.24
33 | SAGGSAGGSAGGMVTVETAPAPEGTERVIRVTFLEVNPEDGTIVRPATLTFVVPPGDPLSAGGSAGGSAGGS [r10_86_TrMRF] | 0.397 ± 0.066 | 0.686 ± 0.062 | 0.876 ± 0.083
34 | SATFKPGETVTIDELTIDGATITKVTVTVNADGTITITATIKPAPPPPPPPEVVRNPETGKTYPAGEVKDSA [r9_603_TrROS_Hall] | 1.87 ± 0.19 | 1.34 ± 0.23 | 0.615 ± 0.087
35 | SAGGSKKTLTITVKNKETGETVKIKVELTPDGKKIKITIVAKKEEEAKEAAKKLLEELGYKVEIVPSAGGSA [r2_30_TrROS_Hall] | 3.15 ± 0.36 | 2.09 ± 0.2 | 1.61 ± 0.066
36 | SAGEIAEKLGFKVEDVSIQKEDGTYRIVVRFPMDDRPVVIMGDIKVEEKNGKRKIEIDIDIMPLPPDDPSAG [r5_516_TrROS] | 1.89 ± 0.03 | 1.7 ± 0.086 | 1.57 ± 0.054
37 | SAGGSAGGSAGGMIVTLPKTGEVLLVPEEEIEAFLAALPESFPKEDVEVYEYSPEEEPLSAGGSAGGSAGGS [r10_13_JUSTAS] | 0.566 ± 0.044 | 0.253 ± 0.13 | 0.0515 ± 0.17
38 | SAGDVKIDIHYDEDGYIRVTVPYKSPHEAREEADELARWLAKQFGPKNIDINVEPHPNGMLVIRIPIKKSAG [r5_772_TrROS] | 2.17 ± 0.099 | 2.62 ± 0.12 | 3.05 ± 0.082
39 | SAGGSAGGKEVYKIKVKNAEIVDFDEETGELTIKLKETGKEIKIPLKAIKKIEITDDYIYIYVESAGGSAGG [r6_313_TrROS_Hall] | 3.64 ± 0.25 | 4.15 ± 0.17 | 4.21 ± 0.13
40 | SAGGSAGGSAGSMTVTVTGGGVSVEVYPETGLVRVRSPSGSETLVDIATGEVVRREPAAASAGGSAGGSAGG [r11_149_JUSTAS] | 0.631 ± 0.047 | 0.781 ± 0.066 | 0.872 ± 0.029
41 | SAGGSAGGSAFQIEDLKIEKVEFNPDGMVHNELEITLPGGKELEVSIMIDPKKPGKLMIMIVSAGGSAGGSA [r18_97_TrROS] | 1.98 ± 0.11 | 1.66 ± 0.31 | 1.42 ± 0.049
42 | SAGGSAGGSKMVLKVTLENGKTIEIEAGETIEEIKAKIEEEFGKPVKIKVEKVSAEELGLKPESAGGSAGGS [r12_379_TrROS_Hall] | 0.304 ± 0.13 | 1.33 ± 0.17 | 1.59 ± 0.055
